The text below walks through data of US20020110800A1, “Use of SHP-1 and SHP-2 to detect compounds involved in neuronal survival” (McGill University, priority 1997, published 2002).

Some targets named below: TrkA Y490/785F (UniProt P04629); TrkA Y490F (UniProt P04629); TrkA Y785F (UniProt P04629).
What all share (assay): cell-based or functional assay
Test [1] has as its target wild-type TrkA, baculovirus-expressed, activated (autophosphorylated) (UniProt P04629).

Consider SHP-1 (enzyme), for which the Trk tyrosine dephosphorylation on co-expression in insect cells (anti-pTyr blot) (in the test with TrkA Y490/785F; in the test with TrkA Y490F; with TrkA Y785F; in test [1]) was 8 fold in each case. In test [1], this substance registered a dephosphorylation of Trk at Y674/Y675 (phospho-specific anti-Trk antibodies, co-expression in insect cells) of 10 fold.
